# Biological target: tRNA pseudouridine synthase from archaea (Q8U2C1) (P. furiosus)
# Experiment: mass photometry
substance,measurement,value
tRNA pseudouridine synthase from archaea (Q8U2C1) (enzyme),stoichiometry N,2

# — doi:10.1101/2023.06.09.544317
